Publication PMC6018948

Legend:
[1] = molecular target: T1, ARR10 (UniProt O49397 1-552); assay: competition
T1 sequence: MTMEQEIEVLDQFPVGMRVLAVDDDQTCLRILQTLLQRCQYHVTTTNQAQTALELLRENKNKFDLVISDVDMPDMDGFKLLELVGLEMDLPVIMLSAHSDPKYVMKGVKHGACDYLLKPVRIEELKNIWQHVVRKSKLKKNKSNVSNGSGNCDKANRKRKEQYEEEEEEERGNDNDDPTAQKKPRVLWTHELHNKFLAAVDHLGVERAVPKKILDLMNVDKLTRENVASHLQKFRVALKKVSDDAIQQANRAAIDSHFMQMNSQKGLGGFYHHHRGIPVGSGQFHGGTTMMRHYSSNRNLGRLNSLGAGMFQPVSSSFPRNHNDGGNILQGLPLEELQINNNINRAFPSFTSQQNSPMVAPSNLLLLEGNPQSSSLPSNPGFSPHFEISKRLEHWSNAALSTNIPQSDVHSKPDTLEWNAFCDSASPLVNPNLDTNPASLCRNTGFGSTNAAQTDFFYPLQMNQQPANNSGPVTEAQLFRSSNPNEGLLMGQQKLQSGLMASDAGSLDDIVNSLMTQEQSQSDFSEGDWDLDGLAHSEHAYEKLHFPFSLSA

[2] = molecular target: T2, ARR1 (UniProt Q940D0 1-690); assay: competition
T2 sequence: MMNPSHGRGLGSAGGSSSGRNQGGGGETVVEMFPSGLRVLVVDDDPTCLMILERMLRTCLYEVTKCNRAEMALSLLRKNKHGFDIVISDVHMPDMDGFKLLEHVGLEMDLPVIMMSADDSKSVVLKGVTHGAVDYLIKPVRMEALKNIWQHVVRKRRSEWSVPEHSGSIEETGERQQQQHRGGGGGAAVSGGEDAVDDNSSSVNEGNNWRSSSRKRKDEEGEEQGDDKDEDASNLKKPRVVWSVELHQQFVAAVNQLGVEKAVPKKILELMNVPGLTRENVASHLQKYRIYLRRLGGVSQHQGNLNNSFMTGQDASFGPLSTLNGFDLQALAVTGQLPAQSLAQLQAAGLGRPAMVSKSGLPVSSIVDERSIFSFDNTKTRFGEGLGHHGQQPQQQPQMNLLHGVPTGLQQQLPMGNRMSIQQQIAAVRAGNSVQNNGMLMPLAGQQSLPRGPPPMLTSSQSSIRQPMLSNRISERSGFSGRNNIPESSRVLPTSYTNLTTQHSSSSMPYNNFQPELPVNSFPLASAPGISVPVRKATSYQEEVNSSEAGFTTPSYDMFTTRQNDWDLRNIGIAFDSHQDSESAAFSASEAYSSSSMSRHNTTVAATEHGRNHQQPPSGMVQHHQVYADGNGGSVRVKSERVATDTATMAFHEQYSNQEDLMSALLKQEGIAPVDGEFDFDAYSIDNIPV

B1: AG mutated competitor (dsDNA)
DNA 1: TTTAAAGCAATGGTTACAATTTTAATACTATCAAATGTCTATTGCTTTTA
DNA 2: TAAAAGCAATAGACATTTGATAGTATTAAAATTGTAACCATTGCTTTAAA
[1]
  binding result: no binding
[2]
  binding result: no binding
